Assay results: patent US20210395381A1 (OSSIANIX, published 2021)
Positions count from the first letter of the chain named.

Key:
Test in all cases: phage ELISA
[1] = molecular target: T1, recombinant mouse TfR-1 (mouse, UniProt Q62351 89-763)
T1 construct: Bought recombinant protein; also called mTfR1
Experimental: After the third round of selection, instead of pooling bacterial colonies, individual phagemid clones were grown in 1 ml of 2TY medium containing glucose and ampicillin in 96-well blocks and used to rescue the phages. After an overnight culturing, bacteria were spun down and an aliquot of the phage supernatant was sent for Sanger sequencing (Genewiz); VNAR CDR3 sequences were identified using BioEdit (a sequence alignment editor). Another aliquot was blocked with 2.5% milk for phage ELISAs. High-binding ELISA plates (Greiner) were coated with 1 μg/ml of recombinant human or mouse TfR-1. The plates were then blocked with 2.5% milk in PBST. Blocked phages were added to the blocked plates and the VNAR-phage clones binding to the antigens were detected with HRP-labelled anti-M13 coat protein antibodies (Sino Biological), and chromogenic TMB substrate (KLM)
T1 sequence (Q62351 89-763 limits assumed): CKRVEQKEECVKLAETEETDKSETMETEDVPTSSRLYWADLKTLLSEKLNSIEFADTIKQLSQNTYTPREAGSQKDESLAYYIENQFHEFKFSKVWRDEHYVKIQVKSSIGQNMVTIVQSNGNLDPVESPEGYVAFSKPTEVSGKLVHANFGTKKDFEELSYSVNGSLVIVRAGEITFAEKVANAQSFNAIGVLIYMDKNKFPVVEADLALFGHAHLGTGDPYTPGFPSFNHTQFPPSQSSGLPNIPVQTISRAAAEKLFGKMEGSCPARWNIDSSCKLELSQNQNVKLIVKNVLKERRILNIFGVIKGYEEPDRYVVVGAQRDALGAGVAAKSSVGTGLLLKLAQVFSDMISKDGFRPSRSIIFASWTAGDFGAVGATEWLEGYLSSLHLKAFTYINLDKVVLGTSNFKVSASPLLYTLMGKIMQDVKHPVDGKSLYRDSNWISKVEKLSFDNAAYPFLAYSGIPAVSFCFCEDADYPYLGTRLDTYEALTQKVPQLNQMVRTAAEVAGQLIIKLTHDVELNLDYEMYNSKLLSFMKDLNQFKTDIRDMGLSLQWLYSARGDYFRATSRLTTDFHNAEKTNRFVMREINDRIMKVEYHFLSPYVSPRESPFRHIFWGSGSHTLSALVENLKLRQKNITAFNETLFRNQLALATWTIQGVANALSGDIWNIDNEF

[2] = molecular target: T2, recombinant mouse TfR-1 (mouse, UniProt Q62351 89-763)
T2 construct: Recombinant protein coated at 1 ug/ml in the phage ELISA; also called mTfR1; mouse transferrin receptor-1
T2 sequence (Q62351 89-763 limits assumed): as above

[3] = molecular target: T3, recombinant human TfR-1 (human, UniProt P02786 89-760)
T3 construct: Recombinant protein coated at 1 ug/ml in the phage ELISA; also called hTfR1; human transferrin receptor-1
T3 sequence (P02786 89-760 limits assumed): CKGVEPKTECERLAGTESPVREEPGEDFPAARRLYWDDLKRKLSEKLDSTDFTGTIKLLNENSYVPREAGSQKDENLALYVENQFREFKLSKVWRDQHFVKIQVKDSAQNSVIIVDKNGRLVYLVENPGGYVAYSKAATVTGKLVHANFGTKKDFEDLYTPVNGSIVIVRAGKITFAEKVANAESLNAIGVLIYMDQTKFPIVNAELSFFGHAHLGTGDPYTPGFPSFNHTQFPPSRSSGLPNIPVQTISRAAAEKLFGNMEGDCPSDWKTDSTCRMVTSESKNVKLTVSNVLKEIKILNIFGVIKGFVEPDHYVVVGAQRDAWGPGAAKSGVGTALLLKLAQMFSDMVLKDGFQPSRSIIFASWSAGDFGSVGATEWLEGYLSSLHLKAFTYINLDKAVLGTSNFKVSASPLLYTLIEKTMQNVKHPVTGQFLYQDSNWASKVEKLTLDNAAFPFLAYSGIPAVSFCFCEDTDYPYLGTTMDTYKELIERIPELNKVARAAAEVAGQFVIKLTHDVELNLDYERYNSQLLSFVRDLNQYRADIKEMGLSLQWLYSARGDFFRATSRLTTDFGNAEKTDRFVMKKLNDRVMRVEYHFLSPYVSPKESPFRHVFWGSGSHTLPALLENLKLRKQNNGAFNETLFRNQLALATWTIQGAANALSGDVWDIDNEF

B1: Clone 42 (VNAR)
VNAR: ARVDQTPQTITKETGESLTINCVLRDSNCELSSTYWYRKKSGSTNEARISKGGRYVETVNSGSKSFSLRINDLTVEDSGTYRCKVRKALVQSQSCCQPLHRDVYGDGTAVTVNA
notes: VNAR on phage
binding result [1]: no binding

B2: Clone 44 (VNAR)
VNAR: ARVDQTPRSVTKETGESLTINCVLRDASYELGSTCWYRKKSGSTNEESISKGGRYVETVNSGSKSFSLRINDLTVEDGGTYRCGAGSVQRSTSQCDRLWSRCWRTRFKIAACGDGTAVTVNA
notes: VNAR on phage
binding result [1]: no binding

B3: Clone 8.105 (VNAR)
VNAR: ARVDQTPQTITKETGESLTINCVLRDSNCALPSTYWYRKKSGSTNEESISKGGRYVETVNSGSKSFSLRINDLTVEDSGTYRCKVVALQESILRGCNYRKHDVYGDGTAVTVNA
notes: VNAR on phage; Clone 8 framework
A450 [2]: 0.051 A450 | A450 [3]: 0.047 A450

B4: Clone 8.121 (VNAR)
VNAR: B3 VNAR with V86I, L88T, Q89L, E90G
notes: as for B3
A450 [2]: 0.049 A450 | A450 [3]: 0.049 A450

B5: Clone 8.109 (VNAR)
VNAR: B3 VNAR with V86I, L88Q, Q89L, E90S, R99T, K100L, H101Y
notes: as for B3
A450 [2]: 0.051 A450 | A450 [3]: 0.055 A450

B6: Clone 8.120 (VNAR)
VNAR: B3 VNAR with V86I, L88Q, Q89L, E90S, I92Y, L93R, R94P
notes: VNAR on phage; Clone 8 framework; same CDR3 as 8.113
A450 [2]: 0.049 A450 | A450 [3]: 0.048 A450

B7: Clone 8.138 (VNAR)
VNAR: B3 VNAR with V86I, L88Q, Q89L, E90S, I92L, L93S, R94F
notes: as for B3
A450 [2]: 0.046 A450 | A450 [3]: 0.047 A450

B8: Clone 8.117 (VNAR)
VNAR: B3 VNAR with V86I, L88Q, Q89L, E90S, R94A, G95L, N97M
notes: as for B3
A450 [2]: 0.049 A450 | A450 [3]: 0.056 A450

B9: Clone 8.133 (VNAR)
VNAR: B3 VNAR with V86I, L88Q, Q89L, E90S, I92R, L93E, R94L
notes: VNAR on phage; Clone 8 framework; same CDR3 as 8.104
A450 [2]: 0.047 A450 | A450 [3]: 0.047 A450

B10: Clone 8.114 (VNAR)
VNAR: B3 VNAR with V86I, L88Q, Q89P, E90S, R99G, H101L
notes: as for B3
A450 [2]: 0.05 A450 | A450 [3]: 0.058 A450

B11: Clone 8.127 (VNAR)
VNAR: B3 VNAR with V86I, L88K, Q89P, E90N
notes: as for B3
A450 [2]: 0.047 A450 | A450 [3]: 0.047 A450

B12: Clone 8.108 (VNAR)
VNAR: B3 VNAR with V86I, L88Q, Q89L, E90S, R99K, K100N, H101V
notes: as for B3
A450 [2]: 0.051 A450 | A450 [3]: 0.044 A450

B13: Clone 8.119 (VNAR)
VNAR: B3 VNAR with V86I, L88Q, Q89L, E90S, I92V, L93F, R94I
notes: as for B3
A450 [2]: 0.049 A450 | A450 [3]: 0.045 A450

B14: Clone 8.145 (VNAR)
VNAR: B3 VNAR with V86I, L88Q, Q89L, E90S, R94Q, G95P, N97Y
notes: as for B3
A450 [2]: 0.045 A450 | A450 [3]: 0.053 A450

B15: Clone 8.113 (VNAR)
VNAR: B3 VNAR with V86I, L88Q, Q89L, E90S, I92Y, L93R, R94P
notes: VNAR on phage; Clone 8 framework; same CDR3 as 8.120
A450 [2]: 0.05 A450 | A450 [3]: 0.051 A450

B16: Clone 8.148 (VNAR)
VNAR: B3 VNAR with V86I, L88Q, Q89L, E90S, R99E, K100H
notes: as for B3
A450 [2]: 0.045 A450 | A450 [3]: 0.049 A450

B17: Clone 8.115 (VNAR)
VNAR: B3 VNAR with V86I, Q89H, E90R
notes: as for B3
A450 [2]: 0.049 A450 | A450 [3]: 0.047 A450

B18: Clone 8.112 (VNAR)
VNAR: B3 VNAR with V86I, L88Q, Q89L, E90S, I92V, L93Y, R94K
notes: as for B3
A450 [2]: 0.05 A450 | A450 [3]: 0.05 A450

B19: Clone 8.129 (VNAR)
VNAR: B3 VNAR with V86I, L88Q, Q89L, E90S, Y98Q, R99P
notes: as for B3
A450 [2]: 0.047 A450 | A450 [3]: 0.047 A450

B20: Clone 8.125 (VNAR)
VNAR: B3 VNAR with V86I, L88Q, Q89L, E90S, I92Y, L93E, R94T
notes: as for B3
A450 [2]: 0.048 A450 | A450 [3]: 0.05 A450

B21: Clone 8.134 (VNAR)
VNAR: B3 VNAR with V86D, A87L, L88T, Q89L, E90S
notes: as for B3
A450 [2]: 0.046 A450 | A450 [3]: 0.053 A450

B22: Clone 8.110 (VNAR)
VNAR: B3 VNAR with V86I, L88Q, Q89L, E90K, S91W, I92G
notes: as for B3
A450 [2]: 0.05 A450 | A450 [3]: 0.055 A450

B23: Clone 8.143 (VNAR)
VNAR: B3 VNAR with V86I, L88Q, Q89L, E90H, S91C, I92M
notes: as for B3
A450 [2]: 0.045 A450 | A450 [3]: 0.051 A450

B24: Clone 8.135 (VNAR)
VNAR: B3 VNAR with V86I, L88Q, Q89L, E90F, S91P, I92P
notes: as for B3
A450 [2]: 0.046 A450 | A450 [3]: 0.058 A450

B25: Clone 8.132 (VNAR)
VNAR: B3 VNAR with V86I, L88Q, Q89L, E90S, R99M, K100H, H101P
notes: as for B3
A450 [2]: 0.047 A450 | A450 [3]: 0.053 A450

B26: Clone 8.139 (VNAR)
VNAR: B3 VNAR with V86D, L88H, Q89L, E90S
notes: as for B3
A450 [2]: 0.045 A450 | A450 [3]: 0.05 A450

B27: Clone 8.126 (VNAR)
VNAR: B3 VNAR with V86I, L88Q, E90D, S91Q, I92D
notes: as for B3
A450 [2]: 0.048 A450 | A450 [3]: 0.05 A450

B28: Clone 8.118 (VNAR)
VNAR: B3 VNAR with V86I, L88Q, Q89L, E90S, I92R, L93A, R94M
notes: as for B3
A450 [2]: 0.049 A450 | A450 [3]: 0.051 A450

B29: Clone 8.142 (VNAR)
VNAR: B3 VNAR with V86I, L88Q, Q89L, E90H, S91A, I92N
notes: as for B3
A450 [2]: 0.045 A450 | A450 [3]: 0.052 A450

B30: Clone 8.141 (VNAR)
VNAR: B3 VNAR with V86I, L88K, Q89A, E90S
notes: as for B3
A450 [2]: 0.045 A450 | A450 [3]: 0.051 A450

B31: Clone 8.111 (VNAR)
VNAR: B3 VNAR with V86I, L88Q, Q89L, E90S, R99D, K100V, H101N
notes: as for B3
A450 [2]: 0.05 A450 | A450 [3]: 0.056 A450

B32: Clone 8.123 (VNAR)
VNAR: B3 VNAR with V86I, L88Q, Q89L, E90S, L93M, R99I, K100M, H101R
notes: as for B3
A450 [2]: 0.048 A450 | A450 [3]: 0.048 A450

B33: Clone 8.130 (VNAR)
VNAR: B3 VNAR with V86I, L88Q, Q89L, E90S, R99A, K100H, H101L
notes: as for B3
A450 [2]: 0.047 A450 | A450 [3]: 0.049 A450

B34: Clone 8.128 (VNAR)
VNAR: B3 VNAR with V86I, L88Q, Q89L, E90I, S91K, I92N
notes: as for B3
A450 [2]: 0.047 A450 | A450 [3]: 0.051 A450

B35: Clone 8.146 (VNAR)
VNAR: B3 VNAR with V86I, L88Q, Q89L, E90S, N97E, Y98A
notes: as for B3
A450 [2]: 0.045 A450 | A450 [3]: 0.045 A450

B36: Clone 8.106 (VNAR)
VNAR: B3 VNAR with L88Q, Q89L, E90S, I92H, L93Y, R94D
notes: as for B3
A450 [2]: 0.051 A450 | A450 [3]: 0.054 A450

B37: Clone 8.136 (VNAR)
VNAR: B3 VNAR with V86I, L88Q, Q89L, E90S, I92A, L93G, R94I
notes: as for B3
A450 [2]: 0.046 A450 | A450 [3]: 0.055 A450

B38: Clone 8.122 (VNAR)
VNAR: B3 VNAR with V86I, L88Q, Q89L, E90S, K100A, H101S
notes: as for B3
A450 [2]: 0.048 A450 | A450 [3]: 0.047 A450

B39: Clone 8.131 (VNAR)
VNAR: B3 VNAR with V86I, L88Q, Q89L, E90S, R99L, K100D, H101L
notes: as for B3
A450 [2]: 0.047 A450 | A450 [3]: 0.066 A450

B40: Clone 8.140 (VNAR)
VNAR: B3 VNAR with V86I, L88I, Q89T, E90L
notes: as for B3
A450 [2]: 0.045 A450 | A450 [3]: 0.053 A450

B41: Clone 8.147 (VNAR)
VNAR: B3 VNAR with V86I, L88Q, Q89L, E90S, N97E, Y98G, R99D
notes: as for B3
A450 [2]: 0.045 A450 | A450 [3]: 0.052 A450

B42: Clone 8.116 (VNAR)
VNAR: B3 VNAR with V86I, L88Q, Q89L, E90N, S91H, I92Y
notes: as for B3
A450 [2]: 0.049 A450 | A450 [3]: 0.066 A450

B43: Clone 8.124 (VNAR)
VNAR: B3 VNAR with V86I, L88Q, Q89L, E90S, I92V, L93K, R94D
notes: as for B3
A450 [2]: 0.048 A450 | A450 [3]: 0.049 A450

B44: Clone 8.107 (VNAR)
VNAR: B3 VNAR with V86I, L88Q, Q89L, E90S, R94F, R99F, H101N
notes: as for B3
A450 [2]: 0.051 A450 | A450 [3]: 0.048 A450

B45: Clone 8.144 (VNAR)
VNAR: B3 VNAR with V86I, L88Q, Q89L, E90S, I92G, L93H
notes: as for B3
A450 [2]: 0.045 A450 | A450 [3]: 0.05 A450

B46: Clone 32 (VNAR)
VNAR: ARVDQTPQTITKETGESLTINCVLRDSNCALSSTYWYRKKSGSTNEENISKGGRYVETVNSGSKSFSLRINDLTVEDSGTYRCNVQDMLTPNDGQLWDVYGDGTAVTVNA
notes: VNAR on phage
binding result [1]: no binding

B47: Clone 41 (VNAR)
VNAR: ARVDQTPQTITKETGESLTINCVLRDSNCALSNLYWYRKKSGSTNEESISLGGRYVETVNSGSKSFSLRINDLTVEDSGTYRCKVTCEVALQPYYGQEPTQDVYGGGTVVTVNA
notes: VNAR on phage
binding result [1]: no binding
